The source of these data is patent publication US20260042815A1, “UNIVERSAL T CELLS AND COMPOSITIONS AND METHODS OF USE THEREOF” (The Trustees of the University of Pennsylvania, priority 2022, published 2026).

The test system of this test is stress ligands (MICA, MICB, ULBP 1-6) on K562 target cells. In words: Stress ligand blocking on K562 target cells with soluble NKG2D protein. The test is classed as cell-based, human. Conditions: parental K562 and K878 targets, NK cells from two donors. From the text: Soluble NKG2D protein was employed to block stress ligands (MICA, MICB, ULBP 1-6) on K562 target cells, which interfered with NKG2D mediated recognition of target cells.

B1: NKG2D protein: Soluble NKG2D protein employed to block stress ligands (MICA, MICB, ULBP 1-6) on K562 target cells (protein, UniProt P26718 73-216, looked up)
extracellular domain: IWSAVFLNSLFNQEVQIPLTESYCGPCPKNWICYKNNCYQFFDESKNWYESQASCMSQNASLLKVYSKEDQDLLKLVKSYHWMGLVHIPTNGSWQWEDGSILSPNLLTIIEMQKGDCALYASSFKGYIENCSTPNTYICMQRTV
modifications: extracellular domain
For the molecule B1, the “Effect on target cell recognition by NK cells” value is reported as “minimal efficacy”.
